In patent publication US20130045267A1, “METHODS OF USING AGENTS THAT MODULATE CLAUDIN EXPRESSION” (priority 2010, published 2013):

Key:
[1] = system: occludin, ZO-1, nectin-1, E-cadherin or filaggrin; assay: qPCR of other barrier proteins after claudin-1 siRNA in PHK; assay type: cell-based, human; conditions: siRNA 100 nM, n=5/group
Method: (§1) QPCR was performed using the iScript™ cDNA Synthesis kit and iQ™ SYBER Green Supermix assay system (Bio-Rad Laboratories). All PCR amplifications were carried out in triplicate on an iQ5 Multicolor real-time PCR detection system (Bio-Rad). Primers were designed and synthesized by Integrated DNA Technologies (Table 1). Relative gene expression was calculated by using the 2^−ΔΔCt method. Livak and Schmittgen, “Analysis of Relative Gene Expression Data Using Real-Time Quantitative PCR and the 2(−Delta Delta C(T)) Method,” Methods 25:402-8 (2001), which is hereby incoporated by reference in its entirety. The normalized Ct value of each sample was calculated using GAPDH as an endogenous control gene.
(§2) PHK were plated on glass coverslips at 2-3×10^5 cells/well in a 6-well plate or at 2-3×10^4 cells/filter in Transwell insert (Costar; PET membrane, 0.4 μm pore size, 6.5 mm insert) in Keratinocyte-SFM without antibiotics. The next day after plating, cells were transfected with claudin-1 specific or control (scrambled) siRNAs (Santa Cruz) using Lipofectamine™ 2000 transfection Reagent (Invitrogen). TEER and permeability experiments were conducted 48 hours after PHK were switched to differentiation media.

[2] = system: primary human keratinocytes (PHK); assay: Click-iT EdU proliferation assay in PHK; assay type: cell-based; conditions: n=3
[3] = system: occludin; assay: Western blot of occludin after CLDN1 siRNA in PHK; assay type: cell-based, human; conditions: 48 h
Method: PHK were lysed on ice in RIPA lysis buffer (20 mM Tris, 50 mM NaCl, 2 mM EDTA, 2 mM EGTA, 1% sodium deoxycholate, 1% TX-100, and 2% SDS, pH 7.4), with 1:100 Protease Inhibitor Cocktail (Sigma), 1:100 Phosphatase Inhibitor Cocktail ([…] for 30 min at 4° C. The samples were heated at 95° C. for 10 min and then centrifuged at 14,000 rpm for 15 min. Forty μg of protein, determined by BCA (Pierce) in NuPage LDS Sample Buffer (Invitrogen) was applied to 4-12% NuPage Bis-Tris gels (Invitrogen). Electrophoresis was performed under reducing conditions with MES SDS Buffer (Invitrogen). Membranes were incubated in blotting solution (5% non-fat dry milk in PBS+0.05% Tween 20) at RT for 1 h and then incubated with primary antibodies; claudin-1 (JAY.8; Zymed), occludin (OC/3F10; Zymed) and GAPDH (FL-355; Santa Cruz). An HRP-linked secondary antibody (GE Healthcare) was used with ECL (GE Healthcare) to visualize bands by autoradiography with Kodak BioMax MR film. The pixel intensity of each band was estimated with Image J.
PHK were plated on glass coverslips at 2-3×10^5 cells/well in a 6-well plate or at 2-3×10^4 cells/filter in Transwell insert (Costar; PET membrane, 0.4 μm pore size, 6.5 mm insert) in Keratinocyte-SFM without antibiotics. […]

[4] = system: connexin-26 (GJB2); assay: qPCR of connexin-26 (GJB2) after claudin-1 knockdown in PHK; assay type: cell-based, human; conditions: claudin-1 siRNA transfected PHK, n=6
Method: as §1, §2

[5] = system: nectin-1 (PVRL1); assay: qPCR of nectin-1 (PVRL1) after CLDN1 siRNA in PHK; assay type: cell-based, human
Method: as §2, with “a E-well” for “a 6-well”, “Transwell inserts” for “Transwell insert”, “(Invitrogen).” for “(Invitrogen). TEER and permeability experiments were conducted 48 hours after PHK were switched to differentiation media.”
Reverse transcription was performed from total RNA using iScript™ cDNA Synthesis kit (Bio-Rad) according to the manufacturer's protocol. qPCR was performed using the iQ™ SYBER Green Supermix assay system from Bio-Rad Laboratories. All PCR amplifications were carried out in triplicate on an iQ5 Multicolor real-time PCR detection system (Bio-Rad). Primers were designed and synthesized by Integrated DNA Technologies. […]
Relative gene expression was calculated by using the […], in which Ct indicates cycle threshold, the fractional cycle number where the fluorescent signal reaches detection threshold. Livak and Schmittgen, “Analysis of Relative Gene Expression Data Using Real-Time Quantitative PCR and the 2(−Delta Delta C(T)) Method,” Methods 25:402-8 (2001), which is hereby incorporated by reference in its entirety. The normalized Ct value of each sample was calculated using GAPDH as an endogenous control gene.

B1: CLDN1 siRNA: claudin-1 specific siRNA (Santa Cruz), a pool of 3 separate strands, SEQ ID NO: 10-15 (nucleic acid)
chain 1: UACAUAGGCAUAGUUCAUGNN
chain 2: CAUGAACUAUGCCUAUGUANN
chain 3: AACGUAUGCAGUUAAUUCCNN
chain 4: GGAAUUAACUGCAUACGUUNN
chain 5: UGAAGAUCUAUGUAUGUGGNN
chain 6: CCACAUACAUAGAUCUUCANN
modifications: chemistry not given here
mRNA expression of occludin, ZO-1, nectin-1, E-cadherin or filaggrin ([1]; listed as Cldn1 siRNA): no effect | mRNA expression of occludin, ZO-1, nectin-1, E-cadherin or filaggrin ([1]; listed as claudin-1 siRNA): no changes | cell proliferation by Click-iT EdU assay ([2]; CLDN1 siRNA, PHK): enhanced cell proliferation | proliferating cells ([2]; claudin-1 depleted PHK): 21.6±1.4 EdU positive cells/hpf | occludin protein by Western blot [3]: No change | connexin-26 (GJB2) expression over control [4]: 1.7±0.8 fold | nectin-1 mRNA expression, effect of CLDN1 silencing ([5]; n=5): not affected | nectin-1 (PVRL1) mRNA relative expression ([5]; siRNA 100 nM, n=5/group): 0.99±0.16
